Reference: patent US11066482B2, “Specific plasmin inactivation by anticatalytic antibody” (priority 2017, dated 2021)

Tests used:
[1] = target: protease domain of reduced human plasmin (Homo sapiens, UniProt P00747); experiment: Immunoblotting of reduced human plasmin; type: binding
Procedure: FIGS. 1A-1D show binding specificity and avidity of Pi for human plasmin. […] Relative migration of molecular standards (kDa) is shown. […] Wells of a microtiter plate were coated with native (wild-type, WT) or various microplasmin loop mutants (5 ug/ml). After blocking, Pi, a polyclonal rabbit anti-plasmin (plasmin Ab) or a non-reactive mouse (anti-digoxin, control) antibody (1 ug/ml) were added to wells. The bound antibodies (Pi, control) were detected by a secondary anti-mouse peroxidase (1:10,000) and the plasmin antibodies were detected by anti-rabbit peroxidase antibody (1:5,000) followed by TMB substrate with monitoring at A405. […] Wells of microtiter plate were coated with human plasminogen (2 ug/ml). After blocking and washing, various concentrations of purified Pi (shown) were added for 1 h. After washing the amount of antibody bound was detected by a secondary anti-mouse antibody followed by TMB substrate with monitoring at A405 nm. Data shown the means±SE of triplicate observations, experiments repeated at least twice. The data were analyzed with Graphpad Prism, r=0.95.

chymotrypsin = experiment: Specificity of Pi binding (ELISA); settings: plate coated 10 ug/ml
Procedure: (§1) FIGS. 3A-3D show binding and inhibitory specificity of Pi. […] The effect of various concentrations of Pi (0-2000 nM) on clots formed with human, baboon or African green monkey plasmas. Clot lysis was measured in microtiter plates after addition of urokinase as described in Methods.
(§2) Specificity of Pi binding. The binding of the Pi to different serine proteases was assessed by ELISA in 96-well plates coated with human plasminogen, mouse plasminogen, tPA, trypsin or chymotrypsin (10 ug/ml) and blocked with 1% BSA. After incubation and washing, Pi or control monoclonal antibody supernatants (anti-digoxin) were added to the wells for 1 h in triplicate. Then goat anti mouse antibody conjugated with HRP (1:5000, Sc-2005, Santa Cruz) was then added. The plate was washed after incubation for 1 h. TMB was added to the wells and absorbance at 370 nm was recorded.

human tPA = human tPA (Homo sapiens, UniProt P00750); experiment: Specificity of Pi binding (ELISA); settings: plate coated 10 ug/ml
Procedure: as §1, §2

mouse plasminogen = mouse plasminogen (Mus musculus, UniProt P20918); experiment: Specificity of Pi binding (ELISA); settings: plate coated 10 ug/ml
Procedure: as §1, §2

trypsin = experiment: Specificity of Pi binding (ELISA); settings: plate coated 10 ug/ml
Procedure: as §1, §2

[2] = target: T1, plasmin activity in bovine plasma (Bos taurus, UniProt P06868); experiment: Plasmin activity in plasma after urokinase, S2251; type: biochemical; settings: Pi 1 uM
T1 construct: from tissue; host or cells: bovine plasma
Procedure: as §1
(§3) Specificity of plasmin inhibition. The effect of the Pi on different animal plasmins was examined after addition of the plasminogen activator urokinase. Various animal plasmas (5 ul) were mixed in microtiter plates in the presence of Pi (1 uM, 10 ul) or buffer, S2251 (10 ul, 0.5 mM final), urokinase (100 or 200 U) in a total volume of 100 ul with PBS. The plates were incubated at 37 deg. C. and the rate of plasmin generation was monitored by substrate cleavage at 405 nm for 1 hr.

[3] = tested on: plasmin activity in cat plasma; experiment: Plasmin activity in plasma after urokinase, S2251; type: biochemical; settings: Pi 1 uM
Procedure: as §1, §3

[4] = target: T2, plasmin activity in dog plasma (Canis lupus familiaris, UniProt P80009); experiment: Plasmin activity in plasma after urokinase, S2251; type: biochemical; settings: Pi 1 uM
T2 construct: from tissue; host or cells: dog plasma
Procedure: as §1, §3

[5] = tested on: plasmin activity in gerbil plasma; experiment: Plasmin activity in plasma after urokinase, S2251; type: biochemical; settings: Pi 1 uM
Procedure: as §1, §3

[6] = tested on: plasmin activity in guinea pig plasma; experiment: Plasmin activity in plasma after urokinase, S2251; type: biochemical; settings: Pi 1 uM
Procedure: as §1, §3

[7] = tested on: plasmin activity in hamster plasma; experiment: Plasmin activity in plasma after urokinase, S2251; type: biochemical; settings: Pi 1 uM
Procedure: as §1, §3

[8] = target: T3, plasmin activity in pig plasma (Sus scrofa, UniProt P06867); experiment: Plasmin activity in plasma after urokinase, S2251; type: biochemical; settings: Pi 1 uM
T3 construct: from tissue; host or cells: pig plasma
Procedure: as §1, §3

[9] = tested on: plasmin activity in rabbit plasma; experiment: Plasmin activity in plasma after urokinase, S2251; type: biochemical; settings: Pi 1 uM
Procedure: as §1, §3

[10] = target: T4, plasmin activity in rat plasma (Rattus norvegicus, UniProt Q01177); experiment: Plasmin activity in plasma after urokinase, S2251; type: biochemical; settings: Pi 1 uM
T4 construct: from tissue; host or cells: rat plasma
Procedure: as §1, §3

plasmin in human plasma = target: T5, plasmin in human plasma (Homo sapiens, UniProt P00747); experiment: Plasmin activity in plasma after urokinase, S2251; type: biochemical; settings: Pi 1 uM
T5 construct: from tissue; host or cells: human plasma
Procedure: as §1, §3

[11] = tested on: African green monkey clots; experiment: Primate clot lysis, microtiter plate, urokinase; type: biochemical; settings: African green monkey plasma, Pi 0-2000 nM, urokinase 10 U
Procedure: as §1
(§4) The ability of Pi to inhibit primate clot lysis was also examined in a microtiter plate assay. Human, baboon or African green monkey plasma (5 ul) was added to 96-well plates in the presence of various concentrations of Pi (0-2000 nM), CaCl2 (2 mM), thrombin (0.125 U/ml) and human fibrinogen (2 mg/ml) and urokinase (10 U). The wells were incubated at 37° C., clot lysis was recorded kinetically for 120 min. and the time required for complete clot lysis was recorded.

baboon clots = experiment: Primate clot lysis, microtiter plate, urokinase; type: biochemical; settings: baboon plasma, Pi 0-2000 nM, urokinase 10 U
Procedure: as §1, §4

human clots = experiment: Primate clot lysis, microtiter plate, urokinase; type: biochemical; settings: human plasma, Pi 0-2000 nM, urokinase 10 U
Procedure: as §1, §4

fibrinolytic bleeding = experiment: Fibrinolytic bleeding assay in vivo (humanized tail bleeding model); design: species or system mice; settings: Pi 100 nmole/kg intravenously, mice given human plasminogen and plasminogen activator
Procedure: Anesthetized mice were treated in a randomized, blinded fashion with saline (Control), Pi (100 nmole/kg) or EACA (510 micromole/kg) intravenously. Human plasminogen (100 nmole/kg) and plasminogen activator (80,000 IU/kg) were given over 60 min. Tail bleeding was initiated 40 min. after the infusion. Tails were pre-warmed for 5 mins in 3 mL of 37° C. saline and bleeding was monitored as described.36,37 N=5-6, Means±SE are shown. *p<0.05, **p<0.01; ns, not significant. Kruskal Wallis one way ANOVA, Dunn's corrections.
Fibrinolytic bleeding assays in vivo. Anesthetized mice were treated in a randomized, blinded fashion with saline (Control), Pi (100 nmole/kg) or EACA (510 micromole/kg). Human plasminogen (100 nmole/kg) and plasminogen activator (80,000 IU/kg) were given over 60 min. Tail bleeding started 40 min. after the infusion. Tails were pre-warmed for 5 mins in 3 mL of 37° C. saline as described.(27, 28).
Suppression of fibrinolytic bleeding in vivo. The potential utility of the Pi for suppression of fibrinolytic bleeding was examined in vivo in randomized, blinded studies of surgical arterial and venous hemorrhage.

T1 sequence (P06868 104-583 limits assumed): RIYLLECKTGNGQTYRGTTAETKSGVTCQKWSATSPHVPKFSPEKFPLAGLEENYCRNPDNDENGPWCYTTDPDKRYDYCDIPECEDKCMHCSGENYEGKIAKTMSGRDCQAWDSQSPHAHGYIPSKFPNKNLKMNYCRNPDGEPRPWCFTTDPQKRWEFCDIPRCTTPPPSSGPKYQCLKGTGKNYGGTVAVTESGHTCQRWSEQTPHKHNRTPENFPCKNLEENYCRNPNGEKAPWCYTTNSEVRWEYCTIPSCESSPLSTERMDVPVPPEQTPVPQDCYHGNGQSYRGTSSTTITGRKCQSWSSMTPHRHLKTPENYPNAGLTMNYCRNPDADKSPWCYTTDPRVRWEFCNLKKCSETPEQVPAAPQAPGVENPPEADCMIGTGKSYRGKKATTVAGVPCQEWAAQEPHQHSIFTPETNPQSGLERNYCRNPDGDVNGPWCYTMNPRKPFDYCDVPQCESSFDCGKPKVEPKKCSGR
T1 sequence (P06868 584-812 limits assumed): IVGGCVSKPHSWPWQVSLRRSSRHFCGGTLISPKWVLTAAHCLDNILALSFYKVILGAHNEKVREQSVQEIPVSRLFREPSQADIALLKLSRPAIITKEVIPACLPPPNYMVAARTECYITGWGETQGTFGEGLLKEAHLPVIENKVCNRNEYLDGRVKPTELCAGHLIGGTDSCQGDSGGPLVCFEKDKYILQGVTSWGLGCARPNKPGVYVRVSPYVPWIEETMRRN
Sequence of mouse plasminogen (P20918 20-812 limits assumed): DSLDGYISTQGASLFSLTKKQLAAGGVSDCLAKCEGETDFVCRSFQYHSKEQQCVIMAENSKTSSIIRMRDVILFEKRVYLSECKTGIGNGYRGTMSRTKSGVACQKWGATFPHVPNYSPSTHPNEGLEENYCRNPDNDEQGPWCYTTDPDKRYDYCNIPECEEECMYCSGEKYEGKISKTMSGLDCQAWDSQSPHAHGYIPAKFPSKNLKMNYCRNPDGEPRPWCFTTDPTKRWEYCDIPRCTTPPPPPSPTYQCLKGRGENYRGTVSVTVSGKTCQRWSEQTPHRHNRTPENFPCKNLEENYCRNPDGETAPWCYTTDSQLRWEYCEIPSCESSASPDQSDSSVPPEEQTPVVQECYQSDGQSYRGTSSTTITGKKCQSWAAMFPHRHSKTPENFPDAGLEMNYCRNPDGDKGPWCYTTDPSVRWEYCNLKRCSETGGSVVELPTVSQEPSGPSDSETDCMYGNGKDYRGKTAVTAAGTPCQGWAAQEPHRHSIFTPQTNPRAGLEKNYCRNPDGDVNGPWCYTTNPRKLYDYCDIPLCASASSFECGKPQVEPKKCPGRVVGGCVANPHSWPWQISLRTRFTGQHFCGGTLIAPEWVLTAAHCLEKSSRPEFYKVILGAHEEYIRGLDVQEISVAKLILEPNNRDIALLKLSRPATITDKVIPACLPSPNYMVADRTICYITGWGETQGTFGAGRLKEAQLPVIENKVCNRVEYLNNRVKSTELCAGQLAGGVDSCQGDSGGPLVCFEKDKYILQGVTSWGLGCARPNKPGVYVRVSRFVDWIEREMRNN
Sequence of protease domain of reduced human plasmin (P00747 581-810 limits assumed): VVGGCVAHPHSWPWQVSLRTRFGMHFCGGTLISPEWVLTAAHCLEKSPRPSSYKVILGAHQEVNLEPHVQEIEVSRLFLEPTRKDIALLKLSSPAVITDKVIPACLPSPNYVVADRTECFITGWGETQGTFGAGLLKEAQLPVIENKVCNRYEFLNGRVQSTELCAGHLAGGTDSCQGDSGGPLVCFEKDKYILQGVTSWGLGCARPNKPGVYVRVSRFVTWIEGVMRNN
T3 sequence (P06867 97-579 limits assumed): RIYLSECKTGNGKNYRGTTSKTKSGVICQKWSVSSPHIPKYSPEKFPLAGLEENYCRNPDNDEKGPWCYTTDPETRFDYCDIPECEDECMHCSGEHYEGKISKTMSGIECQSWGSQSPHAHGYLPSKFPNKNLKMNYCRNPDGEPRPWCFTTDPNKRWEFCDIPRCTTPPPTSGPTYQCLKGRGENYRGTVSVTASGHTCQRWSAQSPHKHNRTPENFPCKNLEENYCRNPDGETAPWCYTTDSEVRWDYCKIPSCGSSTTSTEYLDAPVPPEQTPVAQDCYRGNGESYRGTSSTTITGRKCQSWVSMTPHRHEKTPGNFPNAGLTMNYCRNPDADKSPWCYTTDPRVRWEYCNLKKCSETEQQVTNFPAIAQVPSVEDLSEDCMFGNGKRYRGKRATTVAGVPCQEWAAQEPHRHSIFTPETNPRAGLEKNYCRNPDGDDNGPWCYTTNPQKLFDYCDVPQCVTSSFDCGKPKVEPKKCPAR
T3 sequence (P06867 580-809 limits assumed): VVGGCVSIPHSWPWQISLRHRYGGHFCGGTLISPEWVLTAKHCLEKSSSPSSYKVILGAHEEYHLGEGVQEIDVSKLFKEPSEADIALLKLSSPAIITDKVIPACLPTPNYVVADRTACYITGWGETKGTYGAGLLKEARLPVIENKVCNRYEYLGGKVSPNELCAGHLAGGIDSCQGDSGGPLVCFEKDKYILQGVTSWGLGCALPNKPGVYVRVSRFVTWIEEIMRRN
T4 sequence (Q01177 97-581 limits assumed): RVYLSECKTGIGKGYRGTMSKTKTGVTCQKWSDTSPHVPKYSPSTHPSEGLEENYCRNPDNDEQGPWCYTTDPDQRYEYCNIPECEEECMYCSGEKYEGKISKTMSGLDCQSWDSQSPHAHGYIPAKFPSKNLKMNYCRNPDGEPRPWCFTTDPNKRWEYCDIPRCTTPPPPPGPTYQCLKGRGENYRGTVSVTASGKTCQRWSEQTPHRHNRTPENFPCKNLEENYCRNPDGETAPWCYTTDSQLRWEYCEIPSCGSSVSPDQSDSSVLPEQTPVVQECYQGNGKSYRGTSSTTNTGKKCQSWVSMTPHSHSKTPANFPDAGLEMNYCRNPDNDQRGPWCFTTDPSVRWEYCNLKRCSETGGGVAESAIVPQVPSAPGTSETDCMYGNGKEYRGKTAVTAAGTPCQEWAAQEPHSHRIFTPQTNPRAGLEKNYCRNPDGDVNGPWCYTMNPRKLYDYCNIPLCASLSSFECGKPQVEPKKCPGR
T4 sequence (Q01177 582-812 limits assumed): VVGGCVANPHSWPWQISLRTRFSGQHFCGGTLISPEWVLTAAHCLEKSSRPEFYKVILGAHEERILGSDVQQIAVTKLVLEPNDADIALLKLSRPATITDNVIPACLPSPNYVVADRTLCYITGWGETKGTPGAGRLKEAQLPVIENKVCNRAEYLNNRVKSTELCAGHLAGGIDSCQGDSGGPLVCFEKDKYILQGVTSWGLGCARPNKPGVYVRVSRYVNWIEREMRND
Sequence of human tPA (P00750 36-562): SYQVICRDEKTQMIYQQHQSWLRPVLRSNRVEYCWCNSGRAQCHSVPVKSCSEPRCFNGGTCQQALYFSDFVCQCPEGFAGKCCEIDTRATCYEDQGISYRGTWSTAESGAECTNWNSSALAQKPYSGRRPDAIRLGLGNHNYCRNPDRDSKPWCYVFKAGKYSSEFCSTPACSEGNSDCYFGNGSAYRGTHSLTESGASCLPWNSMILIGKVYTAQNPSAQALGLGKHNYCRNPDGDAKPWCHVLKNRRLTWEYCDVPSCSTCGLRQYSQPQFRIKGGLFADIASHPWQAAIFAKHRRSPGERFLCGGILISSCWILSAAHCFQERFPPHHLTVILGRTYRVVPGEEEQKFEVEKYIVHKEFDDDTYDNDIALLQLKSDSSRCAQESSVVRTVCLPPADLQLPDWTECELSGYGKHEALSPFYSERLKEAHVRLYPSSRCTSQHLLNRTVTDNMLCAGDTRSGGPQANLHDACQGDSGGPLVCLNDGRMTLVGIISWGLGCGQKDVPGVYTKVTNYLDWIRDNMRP
T2 sequence (P80009 with tags, fused parts or gaps): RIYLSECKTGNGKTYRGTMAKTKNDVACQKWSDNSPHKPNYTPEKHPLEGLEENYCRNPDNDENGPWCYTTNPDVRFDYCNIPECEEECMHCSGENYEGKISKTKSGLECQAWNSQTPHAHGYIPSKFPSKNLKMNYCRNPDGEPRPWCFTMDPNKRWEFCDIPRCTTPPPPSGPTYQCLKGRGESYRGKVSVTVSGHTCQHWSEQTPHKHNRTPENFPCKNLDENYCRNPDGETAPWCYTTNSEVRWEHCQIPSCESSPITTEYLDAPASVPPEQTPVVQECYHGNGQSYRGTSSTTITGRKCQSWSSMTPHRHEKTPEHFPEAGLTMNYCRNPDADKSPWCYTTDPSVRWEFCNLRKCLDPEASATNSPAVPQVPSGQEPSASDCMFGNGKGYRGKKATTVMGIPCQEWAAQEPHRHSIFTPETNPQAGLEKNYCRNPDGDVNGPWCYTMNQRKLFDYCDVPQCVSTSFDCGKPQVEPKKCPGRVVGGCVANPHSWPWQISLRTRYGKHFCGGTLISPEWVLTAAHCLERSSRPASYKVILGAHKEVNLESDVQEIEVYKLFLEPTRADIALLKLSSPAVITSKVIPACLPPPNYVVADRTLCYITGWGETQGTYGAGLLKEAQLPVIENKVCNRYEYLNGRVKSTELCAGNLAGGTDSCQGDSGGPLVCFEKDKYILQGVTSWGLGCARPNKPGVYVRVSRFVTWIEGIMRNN
T5 sequence (P00747 97-580 limits assumed): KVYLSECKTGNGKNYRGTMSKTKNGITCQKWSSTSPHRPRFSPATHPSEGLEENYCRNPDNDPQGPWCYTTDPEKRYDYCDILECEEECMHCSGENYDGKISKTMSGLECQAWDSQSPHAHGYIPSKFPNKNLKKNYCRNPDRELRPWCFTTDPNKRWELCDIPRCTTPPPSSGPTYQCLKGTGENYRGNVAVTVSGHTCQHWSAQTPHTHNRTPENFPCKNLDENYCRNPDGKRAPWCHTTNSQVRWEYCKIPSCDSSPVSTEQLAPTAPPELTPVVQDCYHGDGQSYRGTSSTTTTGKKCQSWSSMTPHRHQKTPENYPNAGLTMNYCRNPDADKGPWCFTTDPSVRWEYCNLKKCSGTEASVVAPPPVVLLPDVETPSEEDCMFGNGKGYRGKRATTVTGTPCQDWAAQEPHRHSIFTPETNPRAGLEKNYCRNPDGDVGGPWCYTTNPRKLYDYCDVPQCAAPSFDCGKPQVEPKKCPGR
T5 sequence (P00747 581-810 limits assumed): as the sequence (P00747 581-810 limits assumed) above

B1: Pi: mouse monoclonal antibody plasmin inhibitor binding plasmin protease domain loops 4 and 5; LC SEQ ID NO:1, HC SEQ ID NO:4 (antibody)
heavy: EVKLLESGGGLVQPGGSLKLSCAASGFDFSRYWMSWVRQAPGKGLEWIGEINPDSSTINYTPSLKDKFIISRDNAKNSLYLQMSKVRSEDTALYYCASYCGYSYDALDCWGQGTSVTVSSAKTTPPSVYPLAPGSAAQTNSMVTLGCLVKGYFPEPVTVTWNSGSLSSGVHTFPAVLQSDLYTLSSSVTVPSSTWPSETVTCNVAHPASSTKVDKKIVPRDCGCKPCICTVPEVSSVFIFPPKPKDVLTITLTPKVTCVVVDISKDDPEVQFSWFVDDVEVHTAQTQPREEQFNSTFRSVSELPIMHQDWLNGKEFKCRVNSVAFPAPIEKTISKTKGRPKAPQVYTIPPPKEQMAKDKVSLTCMITDFFPEDITVEWQWNGQPAENYKNTQPIMDTDGSYFVYGKLNVQKSNWEAGNTFTCSVLHEGLHNHHTEKSLSHSPGK
light: DIQMTQSPSSLSASLGGKVSITCKASQDINKYISWYQHKPGKGPRLLIHYTSTLQPGIPSRFSGSGSGRDYSFSISNLEPEDIATYYCLQYDNLYTFGGGTKLEIKRADAAPTVSIFPPSSEQLTSGGASVVCFLNNFYPKDINVKWKIDGSERQNGVLNSWTDQDSKDSTYSMSSTLTLTKDEYERHNSYTCEATHKTSTSPIVKSFNWNEC
For B1, the binding by immunoblotting [1] was “bound specifically to the protease domain of plasmin”, the “specific binding vs control anti-digoxin antibody” value (chymotrypsin) was “no specific binding” and the “specific binding vs control anti-digoxin antibody” value (human tPA) was “no specific binding”. For the same molecule, the “specific binding vs control anti-digoxin antibody” value (mouse plasminogen) was “no specific binding”, the “specific binding vs control anti-digoxin antibody” value (trypsin) was “no specific binding” and the “effect on plasmin activity generated by urokinase” value (“effect … by urokinase” for short) [2] was “did not inhibit plasmin activity”. The “effect … by urokinase” value [3] was “did not inhibit plasmin activity”, the “effect … by urokinase” value [4] was “did not inhibit plasmin activity” and the “effect … by urokinase” value [5] was “did not inhibit plasmin activity”. For the same molecule, the “effect … by urokinase” value [6] was “did not inhibit plasmin activity”, the “effect … by urokinase” value [7] was “did not inhibit plasmin activity” and the “effect … by urokinase” value [8] was “did not inhibit plasmin activity”. For the same molecule, the “effect … by urokinase” value [9] was “did not inhibit plasmin activity”, the “effect … by urokinase” value [10] was “did not inhibit plasmin activity” and the “effect … by urokinase” value (plasmin in human plasma) was “suppressed plasmin”. For the same molecule, the “effect on clot lysis” value [11] was “dose-related suppression”, the “effect on clot lysis” value (baboon clots) was “dose-related suppression” and the “effect on clot lysis” value (human clots) was “markedly prolonged plasmin-induced fibrinolysis”. For the same molecule, the “suppression of bleeding time vs controls” value (fibrinolytic bleeding) was greater than 80% and the “suppression of blood loss vs controls” value (fibrinolytic bleeding) was greater than 85%.
